Paper PMC3217864

Target: CD91 (human (endogenous in PBMCs)) (UniProt Q07954)
UniProt Q07954, sequence (Q07954 20-4544): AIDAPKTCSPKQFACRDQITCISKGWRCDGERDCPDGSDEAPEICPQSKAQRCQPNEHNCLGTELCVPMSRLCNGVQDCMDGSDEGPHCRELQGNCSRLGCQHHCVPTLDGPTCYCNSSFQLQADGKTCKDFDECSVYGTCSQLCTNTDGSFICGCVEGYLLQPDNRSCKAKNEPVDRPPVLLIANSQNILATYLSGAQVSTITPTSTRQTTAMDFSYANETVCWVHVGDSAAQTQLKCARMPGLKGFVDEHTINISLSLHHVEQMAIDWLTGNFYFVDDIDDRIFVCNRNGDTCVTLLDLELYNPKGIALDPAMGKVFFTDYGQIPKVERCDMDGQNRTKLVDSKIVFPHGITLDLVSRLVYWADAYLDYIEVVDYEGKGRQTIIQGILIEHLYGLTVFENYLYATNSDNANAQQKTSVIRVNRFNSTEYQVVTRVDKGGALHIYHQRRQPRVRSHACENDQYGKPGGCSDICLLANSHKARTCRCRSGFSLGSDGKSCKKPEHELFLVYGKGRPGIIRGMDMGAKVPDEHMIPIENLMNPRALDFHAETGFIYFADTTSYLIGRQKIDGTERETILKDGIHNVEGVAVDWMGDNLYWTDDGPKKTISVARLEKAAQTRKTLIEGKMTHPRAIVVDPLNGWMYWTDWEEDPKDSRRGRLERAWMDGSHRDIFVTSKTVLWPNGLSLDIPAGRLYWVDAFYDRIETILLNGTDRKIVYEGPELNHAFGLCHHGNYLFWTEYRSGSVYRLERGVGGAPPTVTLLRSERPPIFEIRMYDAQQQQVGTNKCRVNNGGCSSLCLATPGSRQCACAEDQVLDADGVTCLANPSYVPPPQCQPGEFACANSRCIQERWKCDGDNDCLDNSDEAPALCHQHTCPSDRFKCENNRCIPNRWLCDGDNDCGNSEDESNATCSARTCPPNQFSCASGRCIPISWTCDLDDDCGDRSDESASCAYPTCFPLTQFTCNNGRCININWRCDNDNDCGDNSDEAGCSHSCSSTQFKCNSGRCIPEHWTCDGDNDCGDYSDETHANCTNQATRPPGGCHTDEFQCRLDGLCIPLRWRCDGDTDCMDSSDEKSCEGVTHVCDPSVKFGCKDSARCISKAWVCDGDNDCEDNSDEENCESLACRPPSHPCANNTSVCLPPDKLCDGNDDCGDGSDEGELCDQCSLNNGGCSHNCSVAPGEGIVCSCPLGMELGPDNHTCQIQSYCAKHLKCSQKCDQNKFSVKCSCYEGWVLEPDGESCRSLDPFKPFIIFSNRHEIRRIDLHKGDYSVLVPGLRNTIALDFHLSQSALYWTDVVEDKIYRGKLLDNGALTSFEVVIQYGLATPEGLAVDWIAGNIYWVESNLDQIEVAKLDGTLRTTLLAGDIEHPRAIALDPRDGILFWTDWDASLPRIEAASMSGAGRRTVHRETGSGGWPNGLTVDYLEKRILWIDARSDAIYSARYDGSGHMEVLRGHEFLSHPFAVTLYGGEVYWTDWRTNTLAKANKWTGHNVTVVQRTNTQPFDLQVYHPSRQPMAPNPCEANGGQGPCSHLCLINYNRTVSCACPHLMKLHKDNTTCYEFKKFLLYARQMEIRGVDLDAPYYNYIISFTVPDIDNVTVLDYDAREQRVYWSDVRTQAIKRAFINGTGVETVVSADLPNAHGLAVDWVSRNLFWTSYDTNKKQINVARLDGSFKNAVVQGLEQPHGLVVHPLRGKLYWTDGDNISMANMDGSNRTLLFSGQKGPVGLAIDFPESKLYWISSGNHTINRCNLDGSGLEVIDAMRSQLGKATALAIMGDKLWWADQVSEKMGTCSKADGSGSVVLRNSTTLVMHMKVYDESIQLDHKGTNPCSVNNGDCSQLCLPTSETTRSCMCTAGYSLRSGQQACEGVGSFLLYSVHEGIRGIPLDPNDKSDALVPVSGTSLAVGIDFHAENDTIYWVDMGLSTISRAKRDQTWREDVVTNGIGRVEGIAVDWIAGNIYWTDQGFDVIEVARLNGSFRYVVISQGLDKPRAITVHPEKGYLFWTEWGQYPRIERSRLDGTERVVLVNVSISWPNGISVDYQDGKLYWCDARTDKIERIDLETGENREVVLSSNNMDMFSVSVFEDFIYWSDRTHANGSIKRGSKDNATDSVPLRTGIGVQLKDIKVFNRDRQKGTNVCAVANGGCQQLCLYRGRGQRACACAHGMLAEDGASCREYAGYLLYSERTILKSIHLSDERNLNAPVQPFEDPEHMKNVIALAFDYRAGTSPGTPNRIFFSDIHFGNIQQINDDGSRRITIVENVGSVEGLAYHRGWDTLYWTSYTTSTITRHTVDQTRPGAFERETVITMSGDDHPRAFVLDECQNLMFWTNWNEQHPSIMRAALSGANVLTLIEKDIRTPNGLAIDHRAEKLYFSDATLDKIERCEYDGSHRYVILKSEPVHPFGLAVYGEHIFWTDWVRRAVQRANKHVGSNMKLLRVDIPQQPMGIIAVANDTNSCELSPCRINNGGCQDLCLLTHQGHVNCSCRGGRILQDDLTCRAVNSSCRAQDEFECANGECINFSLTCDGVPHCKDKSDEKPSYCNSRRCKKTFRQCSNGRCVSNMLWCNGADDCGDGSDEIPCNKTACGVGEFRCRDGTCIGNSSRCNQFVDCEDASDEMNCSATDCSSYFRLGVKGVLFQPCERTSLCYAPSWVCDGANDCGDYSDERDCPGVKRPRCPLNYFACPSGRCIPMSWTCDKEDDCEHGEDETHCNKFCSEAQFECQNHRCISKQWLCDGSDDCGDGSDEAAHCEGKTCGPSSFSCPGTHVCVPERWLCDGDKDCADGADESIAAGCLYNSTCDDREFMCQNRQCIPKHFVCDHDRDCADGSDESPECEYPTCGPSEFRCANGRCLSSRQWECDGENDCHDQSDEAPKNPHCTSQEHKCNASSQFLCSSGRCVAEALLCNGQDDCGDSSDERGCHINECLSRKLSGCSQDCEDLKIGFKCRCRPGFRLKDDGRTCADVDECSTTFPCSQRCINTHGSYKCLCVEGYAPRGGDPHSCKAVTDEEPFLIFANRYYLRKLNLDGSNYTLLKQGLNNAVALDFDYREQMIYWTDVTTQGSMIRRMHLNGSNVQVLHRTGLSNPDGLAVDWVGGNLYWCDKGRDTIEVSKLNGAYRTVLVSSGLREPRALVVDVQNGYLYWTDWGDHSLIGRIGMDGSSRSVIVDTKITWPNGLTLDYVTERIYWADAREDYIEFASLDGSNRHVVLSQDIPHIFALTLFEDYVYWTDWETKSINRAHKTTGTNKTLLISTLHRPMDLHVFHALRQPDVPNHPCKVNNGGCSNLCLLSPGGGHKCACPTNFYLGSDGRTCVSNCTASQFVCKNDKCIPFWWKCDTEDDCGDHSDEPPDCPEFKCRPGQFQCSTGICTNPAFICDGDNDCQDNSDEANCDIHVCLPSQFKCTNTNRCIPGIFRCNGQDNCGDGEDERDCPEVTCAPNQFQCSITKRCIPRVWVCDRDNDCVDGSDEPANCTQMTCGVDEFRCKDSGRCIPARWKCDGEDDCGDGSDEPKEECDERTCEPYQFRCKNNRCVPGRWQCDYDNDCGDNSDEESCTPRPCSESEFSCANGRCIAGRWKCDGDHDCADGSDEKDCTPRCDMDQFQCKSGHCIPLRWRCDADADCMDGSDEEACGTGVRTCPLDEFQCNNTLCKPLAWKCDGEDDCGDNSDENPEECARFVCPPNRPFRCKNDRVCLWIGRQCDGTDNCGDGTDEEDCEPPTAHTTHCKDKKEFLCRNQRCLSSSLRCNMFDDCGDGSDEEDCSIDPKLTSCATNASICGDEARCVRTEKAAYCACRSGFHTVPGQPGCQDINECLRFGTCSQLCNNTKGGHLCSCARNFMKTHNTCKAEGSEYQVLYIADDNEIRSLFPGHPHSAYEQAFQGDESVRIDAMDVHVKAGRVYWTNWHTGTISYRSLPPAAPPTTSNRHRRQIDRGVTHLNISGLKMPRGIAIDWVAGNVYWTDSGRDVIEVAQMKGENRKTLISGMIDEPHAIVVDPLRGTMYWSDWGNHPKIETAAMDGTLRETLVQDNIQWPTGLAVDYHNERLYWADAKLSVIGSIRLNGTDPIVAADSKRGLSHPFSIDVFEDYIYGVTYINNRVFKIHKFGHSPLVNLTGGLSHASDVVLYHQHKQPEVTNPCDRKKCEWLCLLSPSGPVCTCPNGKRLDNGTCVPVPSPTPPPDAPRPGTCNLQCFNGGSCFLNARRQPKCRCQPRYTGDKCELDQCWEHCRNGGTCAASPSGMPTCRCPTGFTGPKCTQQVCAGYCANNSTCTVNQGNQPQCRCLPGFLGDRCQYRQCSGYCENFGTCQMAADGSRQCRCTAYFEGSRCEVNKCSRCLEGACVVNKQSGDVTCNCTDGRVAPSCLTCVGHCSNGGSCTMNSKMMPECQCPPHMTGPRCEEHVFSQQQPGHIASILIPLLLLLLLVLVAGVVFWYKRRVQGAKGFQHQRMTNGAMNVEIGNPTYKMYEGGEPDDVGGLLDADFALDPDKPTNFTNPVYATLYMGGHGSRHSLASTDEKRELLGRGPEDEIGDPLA

Question: “HSP70/CMVpp65(495-503)-peptide complex (from UniProt P0DMV8 1-641)” was tested. Which reduction of proliferation of CD8+ T cells (CFSE dilution, 4 days) in PBMCs stimulated with 10 μg/ml HSP70/CMV-PC after 1 h pulse with 500 μg/ml α2-macroglobulin (A2M), the natural ligand of CD91 did it give?
Answer: 86.9%
